Assay results as given in PMC60004.

Assays:
[1] = molecular target: Bombyx mori aminopeptidase N, native, 115-kDa (115-120 kDa) Cry1Aa-binding receptor (Bombyx mori (endogenous in larval midgut)); experiment: SPR
[2] = molecular target: Bombyx mori cadherin-like receptor BtR175, native, 175 kDa (Bombyx mori (endogenous in larval midgut)); experiment: SPR

Substance “Hybrid toxin 4109 (domains I and II of Cry1Aa, domain III of Cry1Ac)” has a Kd [1] of 78 nM, a koff [1] of 0.0015 s⁻¹ and a kon [1] of 19000 M⁻¹ s⁻¹. The Kd [2] was 2.6 nM, the koff [2] was 3.34e-05 s⁻¹ and the kon [2] was 13000 M⁻¹ s⁻¹.
